The values that follow are results of earlier work, collected in paper PMC11827629.

This data set concerns thrombin (as in cited literature). Briefly: cited. To be noted: smFRET: 1x PBS with 2.5 mM PCA, 0.155 U/ul PCD, 1 mM Trolox, 5 nM Cy3-aptamer, 23 +/- 1 C, pH not stated; QCM: PBS, flow 45 +/- 3 ul/min, thrombin 0.06-16.5 nM.

For orientation: Kd means the free concentration of one partner at which half of the binding sites on the other are occupied at equilibrium, for simple one-to-one binding. Regarding HD1 (cited), the Kd was 7.1 nM.

Turning to NU172 (cited), the Kd was 3.2 nM. Regarding RE31 (cited), the Kd is 1.4 nM.
